Tests used:
[1] = target: the molecule itself; test: native gel or EMSA; clear native PAGE (6% or 8% Tris-glycine, 4 °C) of 30 μg mitochondrial extract, immunoblot with anti-TRAP1; cells also treated with hypoxia, oligomycin, rotenone, antimycin A or LDHi, or grown on different carbon sources
[2] = target: the molecule itself; test: native gel or EMSA; blue native PAGE (3-12%) of purified recombinant TRAP1 (20 and 5 ng), immunoblot with anti-TRAP1
[3] = target: the molecule itself; test: affinity purification with mass spectrometry + native gel or EMSA; glutathione bead pull-down of TRAP1-GST from 1 mg mitochondrial lysate of transfected HEK293T cells, elution with 80 mM glutathione, 6% clear native gel, the stained complex band excised and analysed by LC/MS/MS; cutoff 11 unique peptides, GST alone as control

B1: endogenous TRAP1 (natural protein, human (endogenous in HEK293T), UniProt Q12931 60-704, looked up)
chain: STQTAEDKEEPLHSIISSTESVQGSTSKHEFQAETKKLLDIVARSLYSEKEVFIRELISNASDALEKLRHKLVSDGQALPEMEIHLQTNAEKGTITIQDTGIGMTQEELVSNLGTIARSGSKAFLDALQNQAEASSKIIGQFGVGFYSAFMVADRVEVYSRSAAPGSLGYQWLSDGSGVFEIAEASGVRTGTKIIIHLKSDCKEFSSEARVRDVVTKYSNFVSFPLYLNGRRMNTLQAIWMMDPKDVREWQHEEFYRYVAQAHDKPRYTLHYKTDAPLNIRSIFYVPDMKPSMFDVSRELGSSVALYSRKVLIQTKATDILPKWLRFIRGVVDSEDIPLNLSRELLQESALIRKLRDVLQQRLIKFFIDQSKKDAEKYAKFFEDYGLFMREGIVTATEQEVKEDIAKLLRYESSALPSGQLTSLSEYASRMRAGTRNIYYLCAPNRHLAEHSPYYEAMKKKDTEVLFCFEQFDELTLLHLREFDKKKLISVETDIVVDHYKEEKFEDRSPAAECLSEKETEELMAWMRNVLGSRVTNVKVTLRLDTHPAMVTVLEMGAARHFLRMQQLAKTQEERAQLLQPTLEINPRHALIKKLNQLRASEPGLAQLLVDQIYENAMIAAGLVDDPRAMVGRLNELLVKALERH
notes: also called endogenous mitochondrial TRAP1; wild-type (WT) endogenous TRAP1; source: endogenous, mitochondrial extracts of HEK293T cells (also MCF-7, MDA-MB-134, PC3 and HCT116 cells)
stoichiometry N [1]: 4

B2: recombinant human TRAP1 (natural protein, UniProt Q12931 60-704, looked up)
chain: STQTAEDKEEPLHSIISSTESVQGSTSKHEFQAETKKLLDIVARSLYSEKEVFIRELISNASDALEKLRHKLVSDGQALPEMEIHLQTNAEKGTITIQDTGIGMTQEELVSNLGTIARSGSKAFLDALQNQAEASSKIIGQFGVGFYSAFMVADRVEVYSRSAAPGSLGYQWLSDGSGVFEIAEASGVRTGTKIIIHLKSDCKEFSSEARVRDVVTKYSNFVSFPLYLNGRRMNTLQAIWMMDPKDVREWQHEEFYRYVAQAHDKPRYTLHYKTDAPLNIRSIFYVPDMKPSMFDVSRELGSSVALYSRKVLIQTKATDILPKWLRFIRGVVDSEDIPLNLSRELLQESALIRKLRDVLQQRLIKFFIDQSKKDAEKYAKFFEDYGLFMREGIVTATEQEVKEDIAKLLRYESSALPSGQLTSLSEYASRMRAGTRNIYYLCAPNRHLAEHSPYYEAMKKKDTEVLFCFEQFDELTLLHLREFDKKKLISVETDIVVDHYKEEKFEDRSPAAECLSEKETEELMAWMRNVLGSRVTNVKVTLRLDTHPAMVTVLEMGAARHFLRMQQLAKTQEERAQLLQPTLEINPRHALIKKLNQLRASEPGLAQLLVDQIYENAMIAAGLVDDPRAMVGRLNELLVKALERH
notes: TRAP1, human, recombinant; probably without the MTS (surmise); Same material used for blue native PAGE and cryo-EM; also called purified recombinant TRAP1
stoichiometry N [2]: 4

B3: TRAP1-GST fusion protein (natural protein, human, UniProt Q12931 60-704, looked up)
chain: STQTAEDKEEPLHSIISSTESVQGSTSKHEFQAETKKLLDIVARSLYSEKEVFIRELISNASDALEKLRHKLVSDGQALPEMEIHLQTNAEKGTITIQDTGIGMTQEELVSNLGTIARSGSKAFLDALQNQAEASSKIIGQFGVGFYSAFMVADRVEVYSRSAAPGSLGYQWLSDGSGVFEIAEASGVRTGTKIIIHLKSDCKEFSSEARVRDVVTKYSNFVSFPLYLNGRRMNTLQAIWMMDPKDVREWQHEEFYRYVAQAHDKPRYTLHYKTDAPLNIRSIFYVPDMKPSMFDVSRELGSSVALYSRKVLIQTKATDILPKWLRFIRGVVDSEDIPLNLSRELLQESALIRKLRDVLQQRLIKFFIDQSKKDAEKYAKFFEDYGLFMREGIVTATEQEVKEDIAKLLRYESSALPSGQLTSLSEYASRMRAGTRNIYYLCAPNRHLAEHSPYYEAMKKKDTEVLFCFEQFDELTLLHLREFDKKKLISVETDIVVDHYKEEKFEDRSPAAECLSEKETEELMAWMRNVLGSRVTNVKVTLRLDTHPAMVTVLEMGAARHFLRMQQLAKTQEERAQLLQPTLEINPRHALIKKLNQLRASEPGLAQLLVDQIYENAMIAAGLVDDPRAMVGRLNELLVKALERH
notes: TRAP1, human; the MTS is cleaved off upon import; Called one of the 'full-length TRAP1 proteins with different tags'; source: HEK293T, transfected, pulled down from mitochondrial lysate on glutathione beads and eluted with glutathione; not shown: GST, C-terminal, kept
stoichiometry N [3]: 4
